Literature values as cited in patent publication US20200069786A1, “COMPOSITION AND PROCESS FOR PREPARING VACCINE” (TREOS BIO ZRT., priority 2018, published 2020).
Read-outs that look alike come from different tables or passages of the source.

B1: ZNF645 (protein, UniProt Q8N7E2 1-425, looked up)
E3 ubiquitin-protein ligase …: MNKMPAGEQECEYNKEGKYYSKGVKLVRKKKKIPGYRWGDIKINIIGEKDDLPIHFCDKCDLPIKIYGRIIPCKHAFCYHCANLYDKVGYKVCPRCRYPVLRIEAHKRGSVFMCSIVQQCKRTYLSQKSLQAHIKRRHKRARKQVTSASLEKVRPHIAPPQTEISDIPKRLQDRDHLSYIPPEQHTMVSLPSVQHMLQEQHNQPHKDIQAPPPELSLSLPFPIQWETVSIFTRKHGNLTVDHIQNNSDSGAKKPTPPDYYPECQSQPAVSSPHHIIPQKQHYAPPPSPSSPVNHQMPYPPQDVVTPNSVRSQVPALTTTYDPSSGYIIVKVPPDMNSPPLRAPQSQNGNPSASEFASHHYNLNILPQFTENQETLSPQFTQTDAMDHRRWPAWKRLSPCPPTRSPPPSTLHGRSHHSHQRRHRRY
B2: THEG (protein, UniProt Q9P2T0 1-379, looked up)
Sperm microtubule associated …: MGDSRRRSLGNQPSSEAAGRSEREQDGDPRGLQSSVYESRRVTDPERQDLDNAELGPEDPEEELPPEEVAGEEFPETLDPKEALSELERVLDKDLEEDIPEISRLSISQKLPSTTMTKARKRRRRRRLMELAEPKINWQVLKDRKGRCGKGYAWISPCKMSLHFCLCWPSVYWTERFLEDTTLTITVPAVSRRVEELSRPKRFYLEYYNNNRTTPVWPIPRSSLEYRASSRLKELAAPKIRDNFWSMPMSEVSQVSRAAQMAVPSSRILQLSKPKAPATLLEEWDPVPKPKPHVSDHNRLLHLARPKAQSDKCVPDRDPRWEVLDVTKKVVASPRIISLAKPKVRKGLNEGYDRRPLASMSLPPPKASPEKCDQPRPGL
B3: DKKL1 (protein, UniProt Q9UK85 31-242, looked up)
Dickkopf-like protein 1: APIHDADAQESSLGLTGLQSLLQGFSRLFLKGNLLRGIDSLFSAPMDFRGLPGNYHKEENQEHQLGNNTLSSHLQIDKMTDNKTGEVLISENVVASIQPAEGSFEGDLKVPRMEEKEALVPIQKATDSFHTELHPRVAFWIIKLPRRRSHQDALEGGHWLSEKRHRLQAIRDGLRKGTHKDVLEEGTESSSHSRLSPRKTHLLYILRPSRQL
B4: SPAG8 (protein, UniProt Q99932 1-485, looked up)
Sperm-associated antigen 8: METNESTEGSRSRSRSLDIQPSSEGLGPTSEPFPSSDDSPRSALAAATAAAAAAASAAAATAAFTTAKAAALSTKTPAPCSEFMEPSSDPSLLGEPCAGPGFTHNIAHGSLGFEPVYVSCIAQDTCTTTDHSSNPGPVPGSSSGPVLGSSSGAGHGSGSGSGPGCGSVPGSGSGPGPGSGPGSGPGHGSGSHPGPASGPGPDTGPDSELSPCIPPGFRNLVADRVPNYTSWSQHCPWEPQKQPPWEFLQVLEPGARGLWKPPDIKGKLMVCYETLPRGQCLLYNWEEERATNHLDQVPSMQDGSESFFFRHGHRGLLTMQLKSPMPSSTTQKDSYQPPGNVYWPLRGKREAMLEMLLQHQICKEVQAEQEPTRKLFEVESVTHHDYRMELAQAGTPAPTKPHDYRQEQPETFWIQRAPQLPGVSNIRTLDTPFRKNCSFSTPVPLSLGKLLPYEPENYPYQLGEISSLPCPGGRLGGGGGRMTPF
B5: FSIP1 (protein, UniProt Q8NA03 1-581, looked up)
Fibrous sheath-interacting …: MDIIKGNLDGISKPASNSRIRPGSRSSNASLEVLSTEPGSFKVDTASNLNSGKEDHSESSNTENRRTSNDDKQESCSEKIKLAEEGSDEDLDLVQHQIISECSDEPKLKELDSQLQDAIQKMKKLDKILAKKQRREKEIKKQGLEMRIKLWEEIKSAKYSEAWQSKEEMENTKKFLSLTAVSEETVGPSHEEEDTFSSVFHTQIPPEEYEMQMQKLNKDFTCDVERNESLIKSGKKPFSNTEKIELRGKHNQDFIKRNIELAKESRNPVVMVDREKKRLVELLKDLDEKDSGLSSSEGDQSGWVVPVKGYELAVTQHQQLAEIDIKLQELSAASPTISSFSPRLENRNNQKPDRDGERNMEVTPGEKILRNTKEQRDLHNRLREIDEKLKMMKENVLESTSCLSEEQLKCLLDECILKQKSIIKLSSERKKEDIEDVTPVFPQLSRSIISKLLNESETKVQKTEVEDADMLESEECEASKGYYLTKALTGHNMSEALVTEAENMKCLQFSKDVIISDTKDYFMSKTLGIGRLKRPSFLDDPLYGISVSLSSEDQHLKLSSPENTIADEQETKDAAEECKEP
B6: NLRP4 (protein, UniProt Q96MN2 1-994, looked up)
NACHT, LRR and PYD …: MAASFFSDFGLMWYLEELKKEEFRKFKEHLKQMTLQLELKQIPWTEVKKASREELANLLIKHYEEQQAWNITLRIFQKMDRKDLCMKVMRERTGYTKTYQAHAKQKFSRLWSSKSVTEIHLYFEEEVKQEECDHLDRLFAPKEAGKQPRTVIIQGPQGIGKTTLLMKLMMAWSDNKIFRDRFLYTFYFCCRELRELPPTSLADLISREWPDPAAPITEIVSQPERLLFVIDSFEELQGGLNEPDSDLCGDLMEKRPVQVLLSSLLRKKMLPEASLLIAIKPVCPKELRDQVTISEIYQPRGFNESDRLVYFCCFFKDPKRAMEAFNLVRESEQLFSICQIPLLCWILCTSLKQEMQKGKDLALTCQSTTSVYSSFVFNLFTPEGAEGPTPQTQHQLKALCSLAAEGMWTDTFEFCEDDLRRNGVVDADIPALLGTKILLKYGERESSYVFLHVCIQEFCAALFYLLKSHLDHPHPAVRCVQELLVANFEKARRAHWIFLGCFLTGLLNKKEQEKLDAFFGFQLSQEIKQQIHQCLKSLGERGNPQGQVDSLAIFYCLFEMQDPAFVKQAVNLLQEANFHIIDNVDLVVSAYCLKYCSSLRKLCFSVQNVFKKEDEHSSTSDYSLICWHHICSVLTTSGHLRELQVQDSTLSESTFVTWCNQLRHPSCRLQKLGINNVSFSGQSVLLFEVLFYQPDLKYLSFTLTKLSRDDIRSLCDALNYPAGNVKELALVNCHLSPIDCEVLAGLLTNNKKLTYLNVSCNQLDTGVPLLCEALCSPDTVLVYLMLAFCHLSEQCCEYISEMLLRNKSVRYLDLSANVLKDEGLKTLCEALKHPDCCLDSLCLVKCFITAAGCEDLASALISNQNLKILQIGCNEIGDVGVQLLCRALTHTDCRLEILGLEECGLTSTCCKDLASVLTCSKTLQQLNLTLNTLDHTGVVVLCEALRHPECALQVLGLRKTDFDEETQALLTAEEERNPNLTITDDCDTITRVEI
B7: CT46 (protein, UniProt Q86X24 1-394, looked up)
HORMA domain-containing …: MATAQLQRTPMSALVFPNKISTEHQSLVLVKRLLAVSVSCITYLRGIFPECAYGTRYLDDLCVKILREDKNCPGSTQLVKWMLGCYDALQKKYLRMVVLAVYTNPEDPQTISECYQFKFKYTNNGPLMDFISKNQSNESSMLSTDTKKASILLIRKIYILMQNLGPLPNDVCLTMKLFYYDEVTPPDYQPPGFKDGDCEGVIFEGEPMYLNVGEVSTPFHIFKVKVTTERERMENIDSTILSPKQIKTPFQKILRDKDVEDEQEHYTSDDLDIETKMEEQEKNPASSELEEPSLVCEEDEIMRSKESPDLSISHSQVEQLVNKTSELDMSESKTRSGKVFQNKMANGNQPVKSSKENRKRSQHESGRIVLHHFDSSSQESVPKRRKFSEPKEHI
B8: CEP55 (protein, UniProt Q53EZ4 1-464, looked up)
Centrosomal protein of 55 kDa: MSSRSTKDLIKSKWGSKPSNSKSETTLEKLKGEIAHLKTSVDEITSGKGKLTDKERHRLLEKIRVLEAEKEKNAYQLTEKDKEIQRLRDQLKARYSTTTLLEQLEETTREGERREQVLKALSEEKDVLKQQLSAATSRIAELESKTNTLRLSQTVAPNCFNSSINNIHEMEIQLKDALEKNQQWLVYDQQREVYVKGLLAKIFELEKKTETAAHSLPQQTKKPESEGYLQEEKQKCYNDLLASAKKDLEVERQTITQLSFELSEFRRKYEETQKEVHNLNQLLYSQRRADVQHLEDDRHKTEKIQKLREENDIARGKLEEEKKRSEELLSQVQFLYTSLLKQQEEQTRVALLEQQMQACTLDFENEKLDRQHVQHQLHVILKELRKARNQITQLESLKQLHEFAITEPLVTFQGETENREKVAASPKSPTAALNESLVECPKCNIQYPATEHRDLLVHVEYCSK
B9: LEMD1 (protein, UniProt Q68G75 1-181, looked up)
LEM domain-containing protein …: MVDVKCLSDCKLQNQLEKLGFSPGPILPSTRKLYEKKLVQLLVSPPCAPPVMNGPRELDGAQDSDDSEELNIILQGNIILSTEKSKKLKKWPEASTTKRKAVDTYCLDYKPSKGRRWAARAPSTRITYGTITKERDYCAEDQTIESWREEGFPVGLKLAVLGIFIIVVFVYLTVENKSLFG
B10: HSPB9 (protein, UniProt Q9BQS6 1-159, looked up)
Heat shock protein beta-9: MQRVGNTFSNESRVASRCPSVGLAERNRVATMPVRLLRDSPAAQEDNDHARDGFQMKLDAHGFAPEELVVQVDGQWLMVTGQQQLDVRDPERVSYRMSQKVHRKMLPSNLSPTAMTCCLTPSGQLWVRGQCVALALPEAQTGPSPRLGSLGSKASNLTR
B11: FBXO39 (protein, UniProt Q8N4B4 1-442, looked up)
F-box only protein 39: MDEESELIQPQDQSCWAFLPDLCLCRVFWWLGDRDRSRAALVCRKWNQMMYSAELWRYRTITFSGRPSRVHASEVESAVWYVKKFGRYLEHLEVKFMNPYNAVLTKKFQVTMRGLLSCLSKSNNRLKSLSIQYLELDRLVWRNSIRSSFISSLSFFLKKMGKRLDYLNLKGARLTVEQGCQILDSLSYMRNENVISELNIEDYFSHHLAVYNSPQFKKTMSTFHNLVSLNLNYNCISDELLENLCENASTLRTINIKCHVHDPHGQVIWGMSWAKLARQATNLKVNFFFERIMKYERLARILLQEIPIRSISLRSCYFSDPDCSMRPTLIDLLPTFRHTLQKLTCEFNNNHESLDEELHLLIISCRKLFYFKIWAFLDVSFVERILKSQKERQCALRVFKARIYTNRYETNEEDKTLQEIYRKYRKLIESELSYFVIVYSVM

Tested on: TSA
[1] = TSA expression rate in LUNG cancer
[2] = TSA expression rate in PROSTATE cancer
[3] = TSA expression rate in Esophageal

Row | Molecule | TSA Expression Rate (ER) (LUNG) [%] | TSA Expression Rate (ER) (BREAST) [%] | Expression Rate (ER) % (TSA expression rate in CRC) [%] | other results
1 | B1 | 68 |  |  | 
2 | B2 | 31 |  |  | 
3 | B3 |  | 20 | 0 | TSA Expression Rate (ER) (OVARIAN): 57%; TSA Expression Rate (ER) (THYROID): 0%; Expression Rate (ER) % (TSA expression rate in Cervical cancer): 33%; Expression Rate (ER) % (TSA expression rate in Kidney): 0%; Expression Rate (ER) % [1]: 12%; Expression Rate (ER) % (TSA expression rate in MELANOMA): 25%; Expression Rate (ER) % [2]: 13%
4 | B4 | 43 | 29 |  | 
5 | B5 |  | 42 |  | 
6 | B6 | 38 |  |  | 
7 | B7 | 47 | 29 | 7 | Expression Rate (ER) % (TSA expression rate in BLADDER cancer): 20%; Expression Rate (ER) % [3]: 35%
8 | B8 | 94 |  |  | 
9 | B9 |  | 35 | 94 | Expression Rate (ER) % [2]: 23%
10 | B10 | 40 |  | 40 | Expression Rate (ER) % [3]: 20%
11 | B11 |  | 38 | 39 | Expression Rate (ER) % (TSA expression rate in GASTRIC cancer): 4%; Expression Rate (ER) % [1]: 0%
